# Data as given in the RNAGym collection of RNA variant scans (doi:10.1073/pnas.2313332121).
# This sample holds only a part of the variants without activity.
# B1: TPR 5TU (parent)
# chain: GGAUCUUCUCGAUCUAACAAAAAAGACAAAUCUGCCACAAAGCUUGAGAGCAUCUUCGGAUGCAGAGGCGGCAGCCUUCGGUGGCGCGAUAGCGCCAACGUUCUCAACUAUGACACGCAAAACGCGUGCUCCGUUGAAUGGAGUUUAUCAUG
# Variants of: B1
# Assay: polymerase ribozyme fitness, log enrichment relative to wild type (log ratio); higher = more active; in vitro selection for triplet polymerase activity
# Summary of the method: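 The heterodimeric triplet polymerase ribozyme's subunits were each mutagenized into PCR-built libraries and transcribed. Every library was selected once, in triplicate, by annealing with a biotinylated primer, the partner subunit and triplets, incubating frozen at −7 °C, gel-excising extended constructs, capturing on streptavidin beads and running RT-PCR. Input and output libraries were Illumina-sequenced, with genotypes kept only at ≥10 input reads and ≥1 read per output. Fitness, from inverse-variance-weighted replicate averages, is the base-2 logarithm of genotype enrichment over wild-type enrichment.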
row,Variant,polymerase ribozyme fitness (log ratio)
1,C18G U53A U139C,≤ -4.2
2,C18U G25C C43G C99A,≤ -4.2
3,C18U U56A U90G C99U A120C C132U U134C,≤ -4.2
4,A17C A52G G81A G83A A98U,-0.507
5,C18G A21U A29C A37U C57U C95U U127G U148G,-3.75
6,A17G C93A A106G,-1.94
7,A17G A29U G42A C87U G100U A110C A115C A120G U134A,≤ -4.2
8,A16U A47C U53A C85G C131A U134A G140U,≤ -4.2
9,A17G U53A C99G U130C,≤ -4.2
10,A17G U31A U90C C93U C99G C125A A137C G143C,≤ -4.2
11,A17U A40G C54U G83A A91C G126C,≤ -4.2
12,A17G A28U C32U A39U C57A C95A A110G U144C A147G A150C,≤ -4.2
13,A17C A23U A40C G86U,≤ -4.2
14,A19C A28U C75A C85U G92U,≤ -4.2
15,A17U C32G G48A C79G G84U G86U C108U,≤ -4.2
16,A17G C108U,-3.09
17,A17U A24U G83C,0.0208
18,C18G A28U A29U A66G G67C C96U A106C,≤ -4.2
19,A16U A49C G50A C54G C96A U101C U135G,≤ -4.2
20,C18G G86A C87A A91C A120C,≤ -4.2
21,C18U A19G,-1.03
22,A17U C51G G83A U134C,-3.2
23,C18G A137G U145G,-2.16
24,A19C A20C U148A,-3.05

row,Variant,polymerase ribozyme fitness (log ratio)
1,C18U U44A G46U A64G U77A A110C G140C U148A,≤ -4.2
2,A17C U45A C54G G74A A91C U139G,≤ -4.2
3,C18G G84U G117U A121G,-2.06
4,A16U A37U A52C G112U U139A,≤ -4.2
5,A17U A21G C27G A28U C85A C87U C95G,≤ -4.2
6,A17U C51U G83C A91U U139A G140A G141A U148C,≤ -4.2
7,A16U A37U C79A C99U U139A A142U,≤ -4.2
8,C18U G86A G140A,≤ -4.2
9,A19C A20G G136A A147G,-2.36
10,A17G U109G G140U,-3.77
11,A17C G141U,1.61
12,C18U U53A C85A C96A A137G,≤ -4.2
13,A17U,-0.256
14,A17G,0.0905
15,A17C,0.315
16,A17C A19G C51U G59U C75A A91U C116G A121C,≤ -4.2
17,A16U C87U,-2.65
18,A17G A24U A37C A41U G84A U101C C105A U111G C118U,≤ -4.2
19,A16U C38A C85A,-3.78
20,C18U A19U A24G G74U C79U,≤ -4.2
21,A17C C35U G86A A122G,-1.01
22,C18A C69G C96U C103A,-2.88
23,A17G C69G C85G A107C A122G,≤ -4.2
24,C18G C35A G46C G58C C95G A113U,≤ -4.2

row,Variant,polymerase ribozyme fitness (log ratio)
1,A19C A21C C76U C87A A110G A120G,≤ -4.2
2,A16U G71A A73G C93U A113C C118A G140A,≤ -4.2
3,A17U A23U C36G C57A G70U U78C C85U C103G A147C C149U,≤ -4.2
4,A17G A22G U56A,0.0483
5,C18U A47C C79G G88A A91C A121U U148G,≤ -4.2
6,A16U C93U,-2.81
7,A17C U31C A47C U55A C76U G84U,-3.49
8,A17G A20U A37G U53G A98U A106U G126C G136C G143U,≤ -4.2
9,C18A U55G C85A C118U,-2.09
10,A17U A24G A26G A47G G50A G65C U111C A142U,≤ -4.2
11,A19C A30U G50A A73C G80U G86A C118A U145G,≤ -4.2
12,C18G C96U,-1.12
13,A16U C54U,-1.53
14,C18U A21C G42C C93U,≤ -4.2
15,C18U C108U,-3.57
16,A17C C38U A41C A60C,-1.39
17,A17C A24U C114A,-3.86
18,A17G A26C C32U G59A C75U,≤ -4.2
19,C18G A52G C87U,-1.15
20,A17U G94A,-1.24
21,A17G A52U A64U G65A G86C A107C G128A,≤ -4.2
22,C18U C87U C99U A119G C125G U135G,≤ -4.2
23,C18U G86U,-2.18
24,C18U A30C C32U A39U A49C U53G C93G C96U U127G U139G G140U A147C U151A,≤ -4.2

row,Variant,polymerase ribozyme fitness (log ratio)
1,A17U A22U A52G G92C A115G,-2.67
2,A17U A37C C93G C96A,≤ -4.2
3,A17C G68A G83A C116A G128A,≤ -4.2
4,C18U A40G C57G C95U,-3.91
5,C18U G34A G48U C75U G94C G141U,≤ -4.2
6,C18G A41U A47C A49G G86A U104G,-3.44
7,A17U C96G A142U U146A,-2.11
8,C18G G25C U33C C108G,-3.95
9,A17G C85G,-1.33
10,C18U C85A U144G,0.299
11,A17U C38A U44A G70C U82C C95U,≤ -4.2
12,A16U A28U C54U G117C,≤ -4.2
13,A17U C93U C114A C116G,≤ -4.2
14,A16U G65A C69A A91U C93A G100C U101G C123G,≤ -4.2
15,A16U C85U U144C,-2.3
16,C18U C54G G59A C93A G136U,≤ -4.2
17,C18G G84C G126U,-2.27
18,A19C A41G C131A A138U,≤ -4.2
19,C18A G58A G86U A119U,-2.06
20,C18U C87U G94C C123A G141A,≤ -4.2
21,A17C A40G,-1.63
22,A17U A29U C93A G141U,≤ -4.2
23,C18G A21C A49C C93A,≤ -4.2
24,C18U G84A A113G C114U,-2.6

row,Variant,polymerase ribozyme fitness (log ratio)
1,A16U U56A A60U C93U G141U,-3.72
2,A17U A22U U44A G83C C131U,≤ -4.2
3,A16U U82G C87U A122C,-2.32
4,C18U G25U G42C A73U G83U C93U A106G A121C U144A,≤ -4.2
5,C18G G59U G84U,-2.51
6,C18U C57A A115C G143U U148A,≤ -4.2
7,A17G C32G C76U,≤ -4.2
8,A17U A20C A26C C93U C131U,-2.3
9,A17U C54G C96U,-2.08
10,A17G A21C C116U,0.03
11,A17C C18G A40U G86U,-1.43
12,A16U A41G,-1.88
13,C18U A26G G58A C87A A97U G133A,≤ -4.2
14,C18A A21C A37C G81A C87G,≤ -4.2
15,A17C C95U,0.45
16,C18U A52G G83C U146G,-2.39
17,C18G G50A C76U A115G A119G,-3.18
18,A17U C51U U55A U78A G81C C123G,≤ -4.2
19,A17U A19U A22U U61A G83A G84A G100U,≤ -4.2
20,A17U C85A,-1.17
21,A16U C54A U101G A119U C149U,-4.08
22,C18U G84A,-0.579
23,A17G G67C G86A,≤ -4.2
24,A16U C27G A89G G92U C149G,≤ -4.2

row,Variant,polymerase ribozyme fitness (log ratio)
1,A17G C51U A106G A120C A122U,-1.36
2,A19C A21U U101A,0.427
3,C18A G86U C103U U145A,-2.81
4,A17G A37U U82C C96A,-2.2
5,A17U A40U C123U,-0.36
6,A17U A30U U55C C116U,-4.01
7,C18U A20G C76A U77A G92U U101A U134G,≤ -4.2
8,A17G U145C,0.174
9,A17G G84A,-0.469
10,A17U C96A,-0.735
11,C18U A28C C87G G124U U139G U146G,≤ -4.2
12,A16U G25C C72G C76G C96U A107U A115G C129U,≤ -4.2
13,C18U C76A U127G A137C,≤ -4.2
14,C18U A121U,-1.1
15,A17G C38G C51A U78G U90G C131A,≤ -4.2
16,A16U C43U C87U U104G A107G C118A,≤ -4.2
17,A17U U33G A52C,≤ -4.2
18,A17U U33A U45A C57G G70C C87A A98U,≤ -4.2
19,A16U G46C G50C G67A G74C C118U U130A,-4.05
20,C18U C76A C95U C99A U101G A107U C149G,≤ -4.2
21,A16U C35A G74A G80C G83U G86A A97U,≤ -4.2
22,A17U C87U U90C C99G,-3.69
23,C18G A19U G62C C85U C116A,-1.81
24,A16U U61A C93U G140A G143U U148G,≤ -4.2

row,Variant,polymerase ribozyme fitness (log ratio)
1,A17U A29C A41G G59C C85G,≤ -4.2
2,A17C G50U U56A G58C G84U,-1.22
3,A17U G46U G84A C105U,-0.266
4,C18U A21U G42A G58C C95U C116U U145C,≤ -4.2
5,A17U C72U C99U,-1.38
6,A17C A60U G81U G83U G86U C93A,-0.433
7,A17U G94C C95U C105U,-0.248
8,A17G U31C C35G G86A A121U,-4.19
9,C18G C57G G80U C87A U127C G128C,≤ -4.2
10,A17C G74U C85A A91G G92C C93G C118A A120C,≤ -4.2
11,A17U A19U A22G G88U A110G,≤ -4.2
12,C18A C27A A40U C87U C118U,-4.17
13,A16U C32G G34A C85G U90G A97G U134G G141C,≤ -4.2
14,A17G G71A,-3.06
15,C18G C36A C96U A138U,-4.03
16,C18G C35A C76U G83C G84U G88A G141U,≤ -4.2
17,A17C G34A C96G A121G A122C U134C,-1.47
18,A17U A37U G59C G81A A97G C116G,-1.87
19,A17C A30G C95G,-3.8
20,A17U C69U G84C A97G,≤ -4.2
21,C18U C32U A37C C54A C69A G70U A97U A138C C149A,≤ -4.2
22,A17C A22U A37U A60G G71U U78A C93A U104G A122C,≤ -4.2
23,A19C A91U C95A,≤ -4.2
